From the nanobody polyreactivity screen of Harvey et al. (2022) come the findings set out here.

The series can be described thus: yeast display, Sf9 membrane polyspecificity reagent, FACS + sequencing; frameworks hold sequencing errors. Put shortly: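 Synthetic nanobody libraries on Saccharomyces cerevisiae BJ5465 were galactose-induced for 36–48 hours, stained 1 hour at 4 °C with 10% biotinylated, detergent-solubilized Sf9 membrane reagent and enriched on streptavidin microbeads. FACS then separated cells into low and high (top ~1%) gates by anti-HA (expression) and streptavidin (reagent binding) fluorescence. Genes were colony-PCR amplified, MiSeq 2 × 250 sequenced and CDR-length filtered. A clone's polyreactivity label is that of its gate of origin.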
Take “QVQLVESGGGLVQAGGSLRLSCAASGSIFRRNAMGWYRQAPGKEREFVAAITWIGGSTYYADSVKGRFTISRDNAKNTVYLQMNSLKPEDTAVYYCAAKYRTYPSNYYYWGQGTQVTVSS”: the “polyreactivity (PSR sort gate)” value is “high polyreactivity”.

On to “QVQLVESGGGLVQAGGSLRLSCAASGSIFRRYAMGWYRKAPGKEREMVAGISRTGSRTYYADSVKGRFTISRDNAKNTVYLQMNSLKPEDTAVYYCAALGPGRSGFFRYDYWGQGTQVTVSS”, for which the “polyreactivity (PSR sort gate)” value is “high polyreactivity”.

On to “QVQLVESGGGLVQAGGSLRLSCAASGSIFRRYAMGWYRQAPGKERELVAGITRGGSTYYADSVKGRFTISRDNAKNTVYLQMNSLKPEDTAVYYCNAVRRGLPVVGAYDYWGQGTQVTVSS”, for which the “polyreactivity (PSR sort gate)” value is listed as “high polyreactivity”.

“QVQLVESGGGLVQAGGSLRLSCAASGSIFRRYAMGWYRQAPGKERELVAGITRGGSTYYADSVKGRFTISRDNAKNTVYLQMNSLKPEDTAVYYCNRAARYGEYDYWGQGTQVTVSS”: the “polyreactivity (PSR sort gate)” value was “high polyreactivity”.

With “QVQLVESGGGLVQAGGSLRLSCAASGSIFRRYAMGWYRQAPGKERELVATITSTDSTNYADSVKGRFTISRDNAKNTVYLQMNSLKPEDTAVYYCAKRPYHYRRNSEYYYWGQGTQVTVSS”, the “polyreactivity (PSR sort gate)” value was “low polyreactivity”.

As for “QVQLVESGGGLVQAGGSLRLSCAASGSIFRRYDMGWYRQAPGKERELVAAISSSGGSTYYADSVKGRFTISRDNAKNTVYLHMKSLKPEDTAVYYCAADIYDYDRSEYTEYDYWGQGTQVTVSS”, the “polyreactivity (PSR sort gate)” value is on record as “low polyreactivity”.

For “QVQLVESGGGLVQAGGSLRLSCAASGSIFRRYTMGWYRPAPGKERELVAAISRVGNTNYADSVKGRFTISRDNAKNTVYLPMNSLKPEDTAVYYCAARAIGYRYTPGLNYWGQGTQLTVSS”, the “polyreactivity (PSR sort gate)” value is “high polyreactivity”.

“QVQLVESGGGLVQAGGSLRLSCAASGSIFRSDPMGWYRQAPGKEREFVASITYRGGRTYYADSVKGRFTISRDNAKNTVSLQLNSLKPEDSAVYYCAARTRAGAWTSKYHDYWGQGTQVTVSS”: the “polyreactivity (PSR sort gate)” value was “high polyreactivity”.

“QVQLVESGGGLVQAGGSLRLSCAASGSIFRSNALGWYRQAPGKERELVAAISWSGGRTYYADSVKGRFTISRDNAKNTVSLQMTSLKPEDTAVYYCAVGFRTLHGDYGYWGQGTQVTVSS”: the “polyreactivity (PSR sort gate)” value was “high polyreactivity”.

Take “QVQLVESGGGLVQAGGSLRLSCAASGSIFRSNAMGWYRQAPGKERELVAAISRSGGRTYYADSVKGRFTISRDNAKNTVYLLMNSLKPEDTAVYYCAAQVVRSLKYEYWGQGTQVTVSS”: the “polyreactivity (PSR sort gate)” value is recorded as “high polyreactivity”.

Regarding “QVQLVESGGGLVQAGGSLRLSCAASGSIFRSNAMGWYRQAPGKERELVAAISWRGGRTYYADSVKGRFTISRDNAKNSVYLLMNSLKPEDTAVYYCATEVEPYAYGYWGQGTQVTVSS”, the “polyreactivity (PSR sort gate)” value is “high polyreactivity”.

Consider “QVQLVESGGGLVQAGGSLRLSCAASGSIFRSNAMGWYRQAPGQERELVAAISRSGGRTYYADSVKGRFTISRDNAKNTVYLQMNSLKPEDTAVYYCAAQVVRSLKYEYWGQGTQVTVSS”, for which the “polyreactivity (PSR sort gate)” value is “high polyreactivity”.

With “QVQLVESGGGLVQAGGSLRLSCAASGSIFRSNGMGWYREAPGKERELVAAITSSGGSTYYADTVKGRFTISRDNAKNTVYLHMNSLKPEDTAVYYCAKRWNWSYNYWGQGTQVTVSS”, the “polyreactivity (PSR sort gate)” value is reported as “high polyreactivity”.

Take “QVQLVESGGGLVQAGGSLRLSCAASGSIFRSYAMGWYRQAPGKEREFVAAISNGGRTSYADSVKGRFTISRDNAKYNVYLQMNSLKPEDTAVYDCNARYSRRAMGYWGQGTQVTVSS”: the “polyreactivity (PSR sort gate)” value is recorded as “high polyreactivity”.

For the sequence “QVQLVESGGGLVQAGGSLRLSCAASGSIFRSYAMGWYRQAPGKERELVAAIRGGGSTNYADSVKGRFTISRDNAKNTVYLQMNSLKPEDTAVYYFAADKKTKVDWGQGTQVTVSS”, the “polyreactivity (PSR sort gate)” value was “high polyreactivity”.

“QVQLVESGGGLVQAGGSLRLSCAASGSIFRSYAMGWYRQAPGKERELVAAISRGGSTTYADSVKGRFTISRDNAKNTVYLQMNSLKPEDTAVYYCAVANVYYEGYDYWGQGTQVTVSS”: the “polyreactivity (PSR sort gate)” value is on record as “low polyreactivity”.

Consider “QVQLVESGGGLVQAGGSLRLSCAASGSIFRSYAMGWYRQAPGKERELVAAISWRGGRTYYADSVKGRFTISRDNAKNTVYLQMNSLKPEDTAVYYCAVDFYVYRWSPYGDVYRYDYWGQGTQVTVSS”, for which the “polyreactivity (PSR sort gate)” value is “high polyreactivity”.

For the sequence “QVQLVESGGGLVQAGGSLRLSCAASGSIFRSYAMGWYRQAPGKERELVAAITSRGSSTYYADSVTGRFTISRDNAKNTVYLQMNSLKPEDSAVYYCATVFPYSARDGLDYWGQGTQVTVSS”, the “polyreactivity (PSR sort gate)” value is reported as “high polyreactivity”.

“QVQLVESGGGLVQAGGSLRLSCAASGSIFRSYAMGWYRQAPGKQREFVAAITGSGGRTYYADSVKGRFTISRDNAKNTVYLQMNCLKPEDTAVYYCAAALSRRYKSGGPYGFNYWGQGTQVTVSS”: the “polyreactivity (PSR sort gate)” value is on record as “high polyreactivity”.

With “QVQLVESGGGLVQAGGSLRLSCAASGSIFRSYAMGWYRQAPGTERELVDGISYSGGSTYYADSVKGRFTISRDNAKNTVYLQMNSLKPEDTAVYYCNVDGGTYFFFVGAWGEYDYWGQGTQVTVSS”, the “polyreactivity (PSR sort gate)” value is given as “low polyreactivity”.

Take “QVQLVESGGGLVQAGGSLRLSCAASGSIFRTNAMGWYRQAPGKERELVAAITGRGGSTYYADSVKGRFTISRNNAKNTVYLQMNSLKPEDTAVYDCAADTWYGYRYKYDYWGQGTQVTVSS”: the “polyreactivity (PSR sort gate)” value is “high polyreactivity”.

With “QVQLVESGGGLVQAGGSLRLSCAASGSIFRTNAMGWYRQAPGKERELVAAITTSGVTTYYADSVKGRFTISRDNPTNTVYLQMNSLKPEDTAVYYCNARDGRYLPRYDYWRQGTQVTVSS”, the “polyreactivity (PSR sort gate)” value is on record as “low polyreactivity”.

For the sequence “QVQLVESGGGLVQAGGSLRLSCAASGSIFRTYAMGWYRQAPGKEREWVAAISSTGGRTYYADSVKGRFTISRDNAKNTVYLQMNSLKPEDTAVYYCAKRYRYITYRYDYWGQGTQVTVSS”, the “polyreactivity (PSR sort gate)” value is “high polyreactivity”.

As for “QVQLVESGGGLVQAGGSLRLSCAASGSIFRTYAMGWYRQAPGKESELVAAISRSGSSTYYADSVKGRFTISRDNAKNTVYLQRTSLQPEDTAVYYCAAYWPLSYGARGSNYWGQGTQVTVSS”, the “polyreactivity (PSR sort gate)” value is “high polyreactivity”.

As for “QVQLVESGGGLVQAGGSLRLSCAASGSIFRVNAMGWYRQAPGKERELVAAISCRGASTYYADSVKGRFTISRDNAKNTVYLQMNSLKPVDTAVYYCAAYGYSIGPYYYWGQGTQVTGSS”, the “polyreactivity (PSR sort gate)” value is recorded as “high polyreactivity”.

On to “QVQLVESGGGLVQAGGSLRLSCAASGSIFRVNDMGWYRQAPGKERELVATISRSGAITYYADSVKGRFTISRDNAKNTVNLQMNSLKPEDNAVYYCAADFLSRDWGQGTQVTLSS”, for which the “polyreactivity (PSR sort gate)” value is “low polyreactivity”.

With “QVQLVESGGGLVQAGGSLRLSCAASGSIFRVYAMGWYRQAPGKERELVAAISRGGGTTYYADSVKGRFTISRDNAKNTVYLQMNRLKPEDTAVYYCASEYLGYYYQFDSWGQGTQVTVSS”, the “polyreactivity (PSR sort gate)” value was “high polyreactivity”.

Turning to “QVQLVESGGGLVQAGGSLRLSCAASGSIFRVYAMGWYRQAPGKERELVAAITNGGNTNYADSVKGRFTISRDNAKNTVYLQMNSLKPEDTAVYYCAADPLRTPGARHTPYKGTYDYWGQGTQVTVSS”, the “polyreactivity (PSR sort gate)” value is given as “high polyreactivity”.

As to “QVQLVESGGGLVQAGGSLRLSCAASGSIFRVYAMGWYRQAPGKERELVAGISSRGGTSTYYADSVKGRFTISRDNAKNSVYLQMNSLNPEETAVYYCAVQVRYPGYDYWGQGTQVTVSS”, the “polyreactivity (PSR sort gate)” value is given as “low polyreactivity”.

Take “QVQLVESGGGLVQAGGSLRLSCAASGSIFRWNAMGWSRQAPGKERELVAAITWDGGRTYYADSVKGRFTISRDNAKNTVYLQMNSLKPEDTAVYYCNADNARGRSGVRRYYWGQGTQVTVSS”: the “polyreactivity (PSR sort gate)” value is reported as “high polyreactivity”.

Regarding “QVQLVESGGGLVQAGGSLRLSCAASGSIFRWNAMGWYRQAPGKEREFVAAISGRGGSTYYADSVKGRFTISRDNAKNTVYLQMNSLKPEDTAVYYCAADQAHLATRGFDYWGQGTQVTVSS”, the “polyreactivity (PSR sort gate)” value is reported as “high polyreactivity”.

Regarding “QVQLVESGGGLVQAGGSLRLSCAASGSIFRWYAMGWYRQAPGKERELVAAITGSGGRTYYADSVKGRFTISRDNAKNTVYLQMNSLNPEDTAVYYCATRYGREDYWGQGTQVTVSS”, the “polyreactivity (PSR sort gate)” value is “high polyreactivity”.

As to “QVQLVESGGGLVQAGGSLRLSCAASGSIFRYAMGWYRQAPGKERELVATISESGGRTYYADSVKGRFTISRDNANNTVYLQMNSLKPEDTAVYYCAADLKYYYGYRPWFQGGYWGQGTQVTVSS”, the “polyreactivity (PSR sort gate)” value was “low polyreactivity”.

“QVQLVESGGGLVQAGGSLRLSCAASGSIFRYNAMGWYRQAPGKERELVAAISLNTGSTYYADSVKGRFTISRDNAKNTVYLQMNSLKPEDTAVYYCNADDYTYATYEYDYWGQGTQVTVSS”: the “polyreactivity (PSR sort gate)” value is given as “low polyreactivity”.

For the sequence “QVQLVESGGGLVQAGGSLRLSCAASGSIFRYNAMGWYRQAPGKERELVAAITWSGGSTYYADSVKGRFTISRDNAKNTVYLQMNSLKPEDTAVYYCAASPYPHYRRYTGGFYYWGQGTQVTVSS”, the “polyreactivity (PSR sort gate)” value is given as “high polyreactivity”.

Take “QVQLVESGGGLVQAGGSLRLSCAASGSIFRYNAMGWYRQAPGKERELVAGISWSGGSTYYADSVKGRFTISRDNAKNTVYLQMNSLKPEDTAVYYCATRVGRYWTAGYYWGQGTQVTVSS”: the “polyreactivity (PSR sort gate)” value was “high polyreactivity”.

On to “QVQLVESGGGLVQAGGSLRLSCAASGSIFRYNAMGWYRQAPGKERELVASINAGGGSTYYADSVKGRFTISRDNAKNTVYLLMNSLKPEDTAVYDCAAVAHSATRFRYYWRYDYWGQGTQVTVSS”, for which the “polyreactivity (PSR sort gate)” value was “high polyreactivity”.

Take “QVQLVESGGGLVQAGGSLRLSCAASGSIFRYNTMGWYRQAPGKERELVASIRIGGSTFYADSVKGRFTISRDNAKNTVYLQMNSLKPEDTAVYYCAVRPYRSAGGSVTRGAYYYWGQGTQVTVSS”: the “polyreactivity (PSR sort gate)” value is reported as “high polyreactivity”.

In the case of “QVQLVESGGGLVQAGGSLRLSCAASGSIFRYYAMGWYIQAPGKERELVAVITRGGSTYYADSVKGRFTISRDNAKNTVYLQMNSLKPEDTAVYYCAADYWPAGLDRGYWGQGTQVTVSS”, the “polyreactivity (PSR sort gate)” value is reported as “low polyreactivity”.

Regarding “QVQLVESGGGLVQAGGSLRLSCAASGSIFRYYAMGWYRQAPGKERELVAAISIRGGRTYYADSVKGRFTISRDNAKNTVYLQMNSLKPEDTAVYYCATAFGFTAKYYYWGQGTQVTVSS”, the “polyreactivity (PSR sort gate)” value was “high polyreactivity”.

As for “QVQLVESGGGLVQAGGSLRLSCAASGSIFRYYAMGWYRQAPGKERELVAAISQSGTSTYYADSVKGRFTISRDNAKNTVYLQMNSLKPEDTAVYYCAAYPYYDRDYWGQGTQVTVSS”, the “polyreactivity (PSR sort gate)” value is “low polyreactivity”.
